B3: Yersinia enterocolitica urease ureC protein (enzyme)
chain: MPQISRQEYAGLFGPTTGDKIRLGDTNLFIEIEKDLRGYGEESVYGGGKSLRDGMGANNHLTRDNGVLDLVITNVTIVDARLGVIKADVGIRDGKIAGIGKSGNPGVMDGVTPGMVVGVSTDAISGEHLILTAAGIDSHIHLISPQQAYHALSNGVATFFGGGIGPTDGTNGTTVTPGPWNIRQMLRSVEGLPVNVGILGKGNSYGRGPLLEQAIAGVVGYKVHEDWGATANALRHSLRMADEMDIQVSVHTDSLNECGYVEDTIDAFEGRTIHTFHTEGAGGGHAPDIIRVASQPNVLPSSTNPTLPYGVNSQAELFDMIMVCHNLNPNVPADVSFAESRVRPETIAAENVLHDMGVISMFSSDSQAMGRVGENWLRVMQTANAMKASRGKLPEDAPGNDNFRVLRYVAKITINPAIAQGVSHVIGSVEVGKMADLVLWDPRFFGAKPKMVIKGGMINWAAMGDPNASLPTPQPVFYRPMFGAMGKTMQDTCVTFVSQAALDDGVKEKAGLDRQVIAVKNCRTISKHDLVRNDQTPNIEVDPETFAVKVDGVHATCEPIDTAAMNQRYFFG
modifications: carbamylated Lys222
notes: urease chain ureC of Yersinia enterocolitica; residues 2-327 and 335-572 were built in the cryo-EM model; Native enzyme purified from the bacterium, with two Ni2+ ions in the active site; also called α-subunit containing the active site; source: purified from Y. enterocolitica cultures (Sephacryl S-300, Mono Q, SEC)

In data set [1] the target is B3. Description: cryo-EM structure; single-particle cryo-EM of purified urease at 0.39 mg/ml, frozen in a buffer of pH 7.0; tetrahedral (T) symmetry imposed; map at 1.98 Å; no substrate or inhibitor. The conditions noted are these: both partners purified.
Data set [2] concerns the molecule itself. The description is as above.

Results on four molecules are retold here after PMC7547064, “High-resolution cryo-EM structure of urease from the pathogen Yersinia enterocolitica” (Nature Communications, 2020).

B1: Yersinia enterocolitica urease ureB protein (natural protein)
chain: MSTKTNSTKATSEKTDSLKTNRGTKSSAGYSDQNIPLGGCILADTPITFNENKPVTKVKVRNTGDRPIQVGSHFHFFEANRALEFDRAAAYGKRLNISSTTAIRFEPGDETEVPLIPFGGKQTLYGFNNLVDGWTGEGVVPNSERPDKLEAIRRAAERGFKSSK
notes: urease chain ureB of Yersinia enterocolitica; residues 31-162 were built in the cryo-EM model; the N-terminal extension was too disordered to be modelled; Native enzyme purified from the bacterium; source: purified from Y. enterocolitica cultures (Sephacryl S-300, Mono Q, SEC)
As for B1, the binding result in data set [1] and in data set [2] was “binds” throughout.

B2: Yersinia enterocolitica urease ureA protein (natural protein)
chain: MQLTPREVEKLMIYTLSDVAFKRKARGLKLNYPEAVSIITETAMEGARDGKSVEDVMKEASKVLTKDDVMDGVADLIPNVQVEAIFTDGSRLVTVHDPIK
notes: urease chain ureA of Yersinia enterocolitica; all residues of ureA (1-100) were built in the cryo-EM model; Native enzyme purified from the bacterium; source: purified from Y. enterocolitica cultures (Sephacryl S-300, Mono Q, SEC)
For B2, the binding result in data set [1] and in data set [2] was “binds” throughout.

With B3, the binding result in data set [2] is reported as “binds”.

B4: Y. enterocolitica urease hetero-trimer formed by the three protein chains (ureA, ureB, ureC) (complex)
chain 1: MQLTPREVEKLMIYTLSDVAFKRKARGLKLNYPEAVSIITETAMEGARDGKSVEDVMKEASKVLTKDDVMDGVADLIPNVQVEAIFTDGSRLVTVHDPIK
chain 2: MSTKTNSTKATSEKTDSLKTNRGTKSSAGYSDQNIPLGGCILADTPITFNENKPVTKVKVRNTGDRPIQVGSHFHFFEANRALEFDRAAAYGKRLNISSTTAIRFEPGDETEVPLIPFGGKQTLYGFNNLVDGWTGEGVVPNSERPDKLEAIRRAAERGFKSSK
chain 3: MPQISRQEYAGLFGPTTGDKIRLGDTNLFIEIEKDLRGYGEESVYGGGKSLRDGMGANNHLTRDNGVLDLVITNVTIVDARLGVIKADVGIRDGKIAGIGKSGNPGVMDGVTPGMVVGVSTDAISGEHLILTAAGIDSHIHLISPQQAYHALSNGVATFFGGGIGPTDGTNGTTVTPGPWNIRQMLRSVEGLPVNVGILGKGNSYGRGPLLEQAIAGVVGYKVHEDWGATANALRHSLRMADEMDIQVSVHTDSLNECGYVEDTIDAFEGRTIHTFHTEGAGGGHAPDIIRVASQPNVLPSSTNPTLPYGVNSQAELFDMIMVCHNLNPNVPADVSFAESRVRPETIAAENVLHDMGVISMFSSDSQAMGRVGENWLRVMQTANAMKASRGKLPEDAPGNDNFRVLRYVAKITINPAIAQGVSHVIGSVEVGKMADLVLWDPRFFGAKPKMVIKGGMINWAAMGDPNASLPTPQPVFYRPMFGAMGKTMQDTCVTFVSQAALDDGVKEKAGLDRQVIAVKNCRTISKHDLVRNDQTPNIEVDPETFAVKVDGVHATCEPIDTAAMNQRYFFG
modifications: carbamylated Lys222
notes: urease chain ureA of Yersinia enterocolitica, as m1; residues 1-100 built; urease chain ureB of Yersinia enterocolitica, as m2; residues 31-162 built; urease chain ureC of Yersinia enterocolitica, as m3; residues 2-327 and 335-572 built; The asymmetric unit holds one copy each of ureA, ureB and ureC; Twelve such units form the holoenzyme, [[αβγ]3]4, with tetrahedral symmetry; also called basic …
On to B4, for which, in data set [2], the “stoichiometry N” value stood at 12.
